# From patent US20250235548A1 (Zymeworks, published 2025)
# B1: v29456-MT-GGFG-AM-Compound 136 DAR 8 (antibody, human IgG1, kappa)
# heavy: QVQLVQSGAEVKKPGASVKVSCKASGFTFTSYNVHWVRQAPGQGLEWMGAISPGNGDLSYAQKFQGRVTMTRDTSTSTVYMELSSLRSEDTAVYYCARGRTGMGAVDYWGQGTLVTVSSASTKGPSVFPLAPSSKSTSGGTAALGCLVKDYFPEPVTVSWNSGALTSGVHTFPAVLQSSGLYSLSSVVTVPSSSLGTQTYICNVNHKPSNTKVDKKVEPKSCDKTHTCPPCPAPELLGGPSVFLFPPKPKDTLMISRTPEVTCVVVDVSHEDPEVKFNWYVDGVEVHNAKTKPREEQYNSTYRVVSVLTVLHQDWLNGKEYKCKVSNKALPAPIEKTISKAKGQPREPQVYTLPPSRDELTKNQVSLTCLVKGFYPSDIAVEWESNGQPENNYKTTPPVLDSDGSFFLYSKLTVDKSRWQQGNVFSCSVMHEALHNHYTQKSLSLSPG
# light: DVQMTQSPSSLSASVGDRVTITCRASQDVYSYLNWYQQKPGKAVKLLIYYTSRLQSGVPSRFSGSGSGTDYTLTISSLQPEDFATYYCQQYNIFPWTFGQGTKLEIKRTVAAPSVFIFPPSDEQLKSGTASVVCLLNNFYPREAKVQWKVDNALQSGNSQESVTEQDSKDSTYSLSSTLTLSKADYEKHKVYACEVTHQGLSSPVTKSFNRGEC
# modifications: MT-GGFG-AM-Compound 136 drug-linker on reduced cysteines (maleimide); DAR 8 for the whole antibody
# B2: v29456-MT-GGFG-AM-Compound 139 DAR 8 (antibody, human IgG1, kappa)
# heavy: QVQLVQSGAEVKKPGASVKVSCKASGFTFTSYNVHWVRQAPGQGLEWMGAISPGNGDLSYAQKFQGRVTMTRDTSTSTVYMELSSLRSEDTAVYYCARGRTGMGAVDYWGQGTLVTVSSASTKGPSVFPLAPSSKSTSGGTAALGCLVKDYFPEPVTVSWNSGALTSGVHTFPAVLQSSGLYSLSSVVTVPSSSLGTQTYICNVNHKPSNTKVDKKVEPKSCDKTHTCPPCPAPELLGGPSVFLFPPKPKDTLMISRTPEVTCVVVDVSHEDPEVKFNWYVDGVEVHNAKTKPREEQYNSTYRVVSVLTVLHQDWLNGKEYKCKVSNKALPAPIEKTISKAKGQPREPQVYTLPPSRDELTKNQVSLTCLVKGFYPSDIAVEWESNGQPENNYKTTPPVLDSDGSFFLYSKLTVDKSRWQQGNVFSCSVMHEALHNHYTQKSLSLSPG
# light: B1 light
# modifications: MT-GGFG-AM-Compound 139 drug-linker on reduced cysteines (maleimide); DAR 8 for the whole antibody
# B3: v29456-MT-GGFG-Compound 140 DAR 8 (antibody, human IgG1, kappa)
# heavy: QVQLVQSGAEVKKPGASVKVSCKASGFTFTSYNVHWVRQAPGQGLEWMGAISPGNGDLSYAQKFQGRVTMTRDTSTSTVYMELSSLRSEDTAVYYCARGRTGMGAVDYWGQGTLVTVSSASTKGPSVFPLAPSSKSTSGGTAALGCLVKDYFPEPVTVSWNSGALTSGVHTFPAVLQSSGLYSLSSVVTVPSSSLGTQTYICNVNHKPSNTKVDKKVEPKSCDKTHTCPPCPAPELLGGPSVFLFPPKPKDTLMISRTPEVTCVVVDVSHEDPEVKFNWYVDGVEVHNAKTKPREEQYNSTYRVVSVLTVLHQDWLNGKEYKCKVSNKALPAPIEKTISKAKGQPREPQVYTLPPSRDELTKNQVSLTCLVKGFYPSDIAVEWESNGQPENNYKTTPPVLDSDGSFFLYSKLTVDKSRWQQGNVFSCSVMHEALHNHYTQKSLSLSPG
# light: B1 light
# modifications: MT-GGFG-Compound 140 drug-linker on reduced cysteines (maleimide); DAR 8 for the whole antibody
# B4: v29456-MT-GGFG-AM-Compound 129 DAR 8 (antibody, human IgG1, kappa)
# heavy: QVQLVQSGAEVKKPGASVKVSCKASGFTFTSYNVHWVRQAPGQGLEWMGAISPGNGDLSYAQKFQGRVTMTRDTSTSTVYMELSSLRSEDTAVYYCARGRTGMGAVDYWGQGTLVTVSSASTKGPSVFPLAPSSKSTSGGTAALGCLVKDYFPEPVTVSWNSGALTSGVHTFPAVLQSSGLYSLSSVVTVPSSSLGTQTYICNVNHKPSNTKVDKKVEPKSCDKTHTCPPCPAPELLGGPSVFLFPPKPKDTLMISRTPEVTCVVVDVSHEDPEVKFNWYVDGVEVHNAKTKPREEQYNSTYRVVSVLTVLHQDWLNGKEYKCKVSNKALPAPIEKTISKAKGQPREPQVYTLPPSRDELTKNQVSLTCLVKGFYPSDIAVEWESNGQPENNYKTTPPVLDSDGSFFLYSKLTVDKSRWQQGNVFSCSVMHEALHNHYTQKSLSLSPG
# light: B1 light
# modifications: MT-GGFG-AM-Compound 129 drug-linker on reduced cysteines (maleimide); DAR 8 for the whole antibody
# B5: v29456-MT-GGFG-AM-Compound 141 DAR 8 (antibody, human IgG1, kappa)
# heavy: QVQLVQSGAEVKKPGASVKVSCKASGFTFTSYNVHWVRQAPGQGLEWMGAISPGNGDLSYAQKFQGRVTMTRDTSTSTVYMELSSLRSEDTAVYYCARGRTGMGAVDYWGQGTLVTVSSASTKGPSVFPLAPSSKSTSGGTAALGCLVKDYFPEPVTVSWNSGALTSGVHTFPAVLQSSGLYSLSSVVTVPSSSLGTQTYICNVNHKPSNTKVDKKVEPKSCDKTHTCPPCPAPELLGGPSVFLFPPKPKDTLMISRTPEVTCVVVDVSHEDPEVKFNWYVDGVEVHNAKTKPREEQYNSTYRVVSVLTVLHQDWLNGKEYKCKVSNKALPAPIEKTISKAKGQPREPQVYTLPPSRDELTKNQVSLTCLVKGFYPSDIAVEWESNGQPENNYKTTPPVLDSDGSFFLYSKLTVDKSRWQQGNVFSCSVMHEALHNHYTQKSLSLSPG
# light: B1 light
# modifications: MT-GGFG-AM-Compound 141 drug-linker on reduced cysteines (maleimide); DAR 8 for the whole antibody
# B6: v29456-MT-GGFG-Compound 148 DAR 8 (antibody, human IgG1, kappa)
# heavy: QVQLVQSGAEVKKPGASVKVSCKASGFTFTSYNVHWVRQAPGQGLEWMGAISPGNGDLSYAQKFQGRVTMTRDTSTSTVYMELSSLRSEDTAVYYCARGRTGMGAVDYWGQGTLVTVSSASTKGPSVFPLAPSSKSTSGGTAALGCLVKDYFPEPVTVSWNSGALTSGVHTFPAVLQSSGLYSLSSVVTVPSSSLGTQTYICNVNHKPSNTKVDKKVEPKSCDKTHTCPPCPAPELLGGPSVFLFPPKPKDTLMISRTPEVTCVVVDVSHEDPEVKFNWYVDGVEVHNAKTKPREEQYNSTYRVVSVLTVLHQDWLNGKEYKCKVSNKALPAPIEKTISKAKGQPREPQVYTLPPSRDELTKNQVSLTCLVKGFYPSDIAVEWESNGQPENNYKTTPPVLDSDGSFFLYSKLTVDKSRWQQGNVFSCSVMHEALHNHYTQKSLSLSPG
# light: B1 light
# modifications: MT-GGFG-Compound 148 drug-linker on reduced cysteines (maleimide); DAR 8 for the whole antibody
# B7: v29456-MC-GGFG-AM-DXd1 DAR 8 (antibody, human IgG1, kappa)
# heavy: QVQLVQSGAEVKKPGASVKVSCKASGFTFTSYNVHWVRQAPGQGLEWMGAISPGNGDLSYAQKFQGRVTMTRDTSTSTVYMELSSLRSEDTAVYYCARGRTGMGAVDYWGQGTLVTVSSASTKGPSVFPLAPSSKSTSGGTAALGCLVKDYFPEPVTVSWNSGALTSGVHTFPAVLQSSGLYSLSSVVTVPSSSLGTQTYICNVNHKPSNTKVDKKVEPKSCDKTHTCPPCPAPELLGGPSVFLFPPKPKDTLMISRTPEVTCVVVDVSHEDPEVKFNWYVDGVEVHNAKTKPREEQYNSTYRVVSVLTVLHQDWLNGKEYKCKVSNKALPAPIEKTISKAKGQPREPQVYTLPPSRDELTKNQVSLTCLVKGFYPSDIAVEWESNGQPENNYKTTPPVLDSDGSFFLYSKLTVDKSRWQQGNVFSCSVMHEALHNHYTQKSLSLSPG
# light: B1 light
# modifications: MC-GGFG-AM-DXd1 drug-linker on reduced cysteines (maleimide); DAR 8 for the whole antibody
# B8: v29456-MC-GGFG-AM-Compound 139 DAR 4 (antibody, human IgG1, kappa)
# heavy: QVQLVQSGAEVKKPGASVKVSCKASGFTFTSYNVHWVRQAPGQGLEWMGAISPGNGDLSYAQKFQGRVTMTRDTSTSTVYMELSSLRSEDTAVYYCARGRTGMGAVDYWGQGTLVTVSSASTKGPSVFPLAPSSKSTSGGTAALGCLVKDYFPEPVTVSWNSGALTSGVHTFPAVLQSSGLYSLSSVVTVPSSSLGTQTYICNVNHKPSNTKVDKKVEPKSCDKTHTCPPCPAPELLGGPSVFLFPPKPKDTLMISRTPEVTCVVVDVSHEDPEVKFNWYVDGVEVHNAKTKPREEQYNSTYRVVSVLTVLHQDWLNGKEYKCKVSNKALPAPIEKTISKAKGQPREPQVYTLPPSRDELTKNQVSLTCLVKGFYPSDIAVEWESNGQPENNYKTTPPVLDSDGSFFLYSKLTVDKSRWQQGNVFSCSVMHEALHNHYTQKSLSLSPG
# light: B1 light
# modifications: MC-GGFG-AM-Compound 139 drug-linker on reduced cysteines (maleimide); target DAR 4, printed DAR 3.4, for the whole antibody
# B9: v29456-MC-GGFG-Compound 141 DAR 4 (antibody, human IgG1, kappa)
# heavy: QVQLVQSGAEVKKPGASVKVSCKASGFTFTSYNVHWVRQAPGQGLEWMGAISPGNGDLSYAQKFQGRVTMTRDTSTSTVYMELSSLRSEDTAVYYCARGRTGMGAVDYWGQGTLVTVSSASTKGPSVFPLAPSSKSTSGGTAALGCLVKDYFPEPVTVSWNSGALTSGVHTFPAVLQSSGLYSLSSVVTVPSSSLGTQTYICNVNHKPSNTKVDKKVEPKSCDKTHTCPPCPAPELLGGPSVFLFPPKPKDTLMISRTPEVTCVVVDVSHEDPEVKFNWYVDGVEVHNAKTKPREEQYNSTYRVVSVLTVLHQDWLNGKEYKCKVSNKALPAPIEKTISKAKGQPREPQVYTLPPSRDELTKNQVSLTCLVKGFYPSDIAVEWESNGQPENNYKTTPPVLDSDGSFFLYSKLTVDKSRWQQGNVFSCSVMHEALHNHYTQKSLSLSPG
# light: B1 light
# modifications: MC-GGFG-Compound 141 drug-linker on reduced cysteines (maleimide); target DAR 4, printed DAR 3.4, for the whole antibody
# B10: v29456-MC-GGFG-Compound 141 DAR 8 (antibody, human IgG1, kappa)
# heavy: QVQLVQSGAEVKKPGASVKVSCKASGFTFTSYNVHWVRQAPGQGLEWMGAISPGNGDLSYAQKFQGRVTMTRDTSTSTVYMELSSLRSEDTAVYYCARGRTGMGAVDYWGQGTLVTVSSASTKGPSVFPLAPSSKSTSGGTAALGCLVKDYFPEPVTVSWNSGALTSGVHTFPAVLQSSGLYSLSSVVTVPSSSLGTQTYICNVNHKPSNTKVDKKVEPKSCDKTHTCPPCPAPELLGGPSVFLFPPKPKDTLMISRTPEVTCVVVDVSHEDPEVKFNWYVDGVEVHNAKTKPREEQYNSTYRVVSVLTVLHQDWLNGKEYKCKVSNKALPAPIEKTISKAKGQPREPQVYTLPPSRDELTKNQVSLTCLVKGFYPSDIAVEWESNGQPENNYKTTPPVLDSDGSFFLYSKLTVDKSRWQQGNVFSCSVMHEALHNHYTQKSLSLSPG
# light: B1 light
# modifications: MC-GGFG-Compound 141 drug-linker on reduced cysteines (maleimide); DAR 8 for the whole antibody
# B11: v38591 (humanized anti-NaPi2b antibody, H1L2, wild-type Fc) (antibody, human IgG1, kappa)
# heavy: not shown
# light: B1 light
# B12: v40502 (LALADS) anti-NaPi2b antibody (antibody, human IgG1, kappa, L234A L235A)
# heavy: not shown
# light: B1 light
# B13: v40502-MC-GGFG-AM-Compound 139 DAR 4 (antibody, human IgG1, kappa, L234A L235A)
# heavy: not shown
# light: B1 light
# modifications: drug-linker MC-GGFG-AM-Compound 139 conjugated by maleimide after TCEP reduction; DAR 4 for the whole antibody (printed 3.3 in Table 45.1); sites not stated
# B14: v38591-MC-GGFG-AM-Compound 139 DAR 4 (antibody, human IgG1, kappa)
# heavy: not shown
# light: B1 light
# modifications: drug-linker MC-GGFG-AM-Compound 139 conjugated by maleimide after TCEP reduction; DAR 4 for the whole antibody; sites not stated
# B15: v21995 (palivizumab, anti-RSV antibody) (antibody, human IgG1, kappa, V domains shown)
# VH: QVTLRESGPALVKPTQTLTLTCTFSGFSLSTSGMSVGWIRQPPGKALEWLADIWWDDKKDYNPSLKSRLTISKDTSKNQVVLKVTNMDPADTATYYCARSMITNWYFDVWGAGTTVTVSS
# VL: DIQMTQSPSTLSASVGDRVTITCKSQLSVGYMHWYQQKPGKAPKLLIYDTSKLASGVPSRFSGSGSGTEFTLTISSLQPDDFATYYCFQGSGYPFTFGGGTKLEIKR
# B16: v18993-MCvc-PABC-MMAE (lifastuzumab vedotin) (antibody, human IgG1, kappa)
# heavy 1: GEVQLVESGGGLVQPGGSLRLSCAASGFSFSDFAMSWVRQAPGKGLEWVATIGRVAFHTYYPDSMKGRFTISRDNSKNTLYLQMNSLRAEDTAVYYCARHRGFDVGHFDFWGQGTLVTVSSASTKGPSVFPLAPSSKSTSGGTAALGCLVKDYFPEPVTVSWNSGALTSGVHTFPAVLQSSGLYSLSSVVTVPSSSLGTQTYICNVNHKPSNTKVDKKVEPKSCDKTHTCPPCPAPELLGGPSVFLFPPKPKDTLMISRTPEVTCVVVDVSHEDPEVKFNWYVDGVEVHNAKTKPREEQYNSTYRVVSVLTVLHQDWLNGKEYKCKVSNKALPAPIEKTISKAKGQPREPQVYVYPPSRDELTKNQVSLTCLVKGFYPSDIAVEWESNGQPENNYKTTPPVLDSDGSFALVSKLTVDKSRWQQGNVFSCSVMHEALHNHYTQKSLSLSPG
# heavy 2: not shown
# light: GDIQMTQSPSSLSASVGDRVTITCRSSETLVHSSGNTYLEWYQQKPGKAPKLLIYRVSNRFSGVPSRFSGSGSGTDFTLTISSLQPEDFATYYCFQGSFNPLTFGQGTKVEIKRTVAAPSVFIFPPSDEQLKSGTASVVCLLNNFYPREAKVQWKVDNALQSGNSQESVTEQDSKDSTYSLSSTLTLSKADYEKHKVYACEVTHQGLSSPVTKSFNRGEC
# modifications: drug-linker MCvc-PABC-MMAE; DAR 4.1 for the whole antibody; sites not stated
# Molecular target: T1, human sodium-dependent phosphate transporter 2B (NaPi2b) (human, UniProt O95436 1-690)
# T1 sequence: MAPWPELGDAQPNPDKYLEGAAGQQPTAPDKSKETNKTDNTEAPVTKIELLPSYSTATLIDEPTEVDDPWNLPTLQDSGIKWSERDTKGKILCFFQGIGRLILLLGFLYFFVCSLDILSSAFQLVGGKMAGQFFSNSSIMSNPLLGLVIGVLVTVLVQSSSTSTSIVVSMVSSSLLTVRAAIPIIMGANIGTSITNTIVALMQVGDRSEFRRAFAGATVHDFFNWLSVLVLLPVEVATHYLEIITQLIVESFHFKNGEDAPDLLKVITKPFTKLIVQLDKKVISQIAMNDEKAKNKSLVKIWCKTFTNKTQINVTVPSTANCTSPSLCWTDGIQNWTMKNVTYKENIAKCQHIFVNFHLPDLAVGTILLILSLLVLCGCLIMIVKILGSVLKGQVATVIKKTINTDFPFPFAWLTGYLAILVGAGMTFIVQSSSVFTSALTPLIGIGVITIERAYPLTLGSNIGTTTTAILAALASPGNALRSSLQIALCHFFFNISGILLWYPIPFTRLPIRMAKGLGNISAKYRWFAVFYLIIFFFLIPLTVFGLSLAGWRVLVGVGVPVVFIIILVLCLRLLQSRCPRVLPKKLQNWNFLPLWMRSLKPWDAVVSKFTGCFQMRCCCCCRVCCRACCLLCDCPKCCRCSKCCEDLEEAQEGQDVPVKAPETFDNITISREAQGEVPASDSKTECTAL
# Assay: cell-based or functional assay
Binder,"EC50 of cytotoxicity, 2D monolayer, HCC-78 cells, 4 days, CellTiter-Glo","EC50 of cytotoxicity, 2D monolayer, IGROV-1 cells, 4 days, CellTiter-Glo","EC50 of cytotoxicity, 2D monolayer, HCC-78 cells, 4 days, CellTiter-Glo (row printed as v29456-MT-GGFG-AM-DXd1)","EC50 of cytotoxicity, 2D monolayer, IGROV-1 cells, 4 days, CellTiter-Glo (row printed as v29456-MT-GGFG-AM-DXd1)"
B1,0.43 nM,4.48 nM,–,–
B2,0.65 nM,1.71 nM,–,–
B3,0.6 nM,–,–,–
B4,0.42 nM,1.11 nM,–,–
B5,0.26 nM,1.56 nM,–,–
B6,1.98 nM,–,–,–
B7,–,–,0.55 nM,0.45 nM

# Molecular target: T1, human sodium-dependent phosphate …
# Assay: cell-based or functional assay
# Remark: another data set of the same source
Binder,"EC50 of cytotoxicity, 2D monolayer, IGROV-1 cells","EC50 of cytotoxicity, 2D monolayer, TOV-21G cells"
B8,5.46 nM,–
B9,16.4 nM,–
B10,3.01 nM,0.93 nM

# Molecular target: T1, human sodium-dependent phosphate …
# Assay: cell-based or functional assay
# Remark: another data set of the same source
Binder,"EC50 of cytotoxicity, HCC-78 3D spheroids, 6 days, CellTiter-Glo 3D","EC50 of cytotoxicity, IGROV-1 3D spheroids, 6 days, CellTiter-Glo 3D"
B2,0.82 nM,0.37 nM
B3,0.19 nM,0.25 nM
B5,0.33 nM,0.21 nM
B7,0.6 nM,0.27 nM

# Molecular target: T1, human sodium-dependent phosphate …
# Assay: cell-based or functional assay
# Remark: another data set of the same source
Binder,"EC50 of cytotoxicity, IGROV-1 3D spheroids","EC50 of cytotoxicity, TOV-21G:HDFa (1:1) 3D spheroids"
B8,0.88 nM,0.76 nM
B9,1.31 nM,0.99 nM
B10,0.44 nM,0.9 nM

# Molecular target: T2, human sodium-dependent phosphate transporter 2B (NaPi2b) (human, UniProt O95436 1-690)
# T2 sequence: T1 sequence
# Assay: cell-based or functional assay
Binder,"Internalized Fluorescence Fold-Over Untreated, H441, 4 hours, 2.5 nM","Internalized Fluorescence Fold-Over Untreated, H441, 24 hours, 2.5 nM","Internalized Fluorescence Fold-Over Untreated, HCC-78, 4 hours, 2.5 nM","Internalized Fluorescence Fold-Over Untreated, HCC-78, 24 hours, 2.5 nM","Internalized Fluorescence Fold-Over Untreated, IGROV-1, 4 hours, 2.5 nM","Internalized Fluorescence Fold-Over Untreated, IGROV-1, 24 hours, 2.5 nM"
B11,1.2 fold,1.9 fold,5.7 fold,35 fold,7.2 fold,26 fold
B12,1.2 fold,1.9 fold,5.5 fold,35.5 fold,7 fold,25.3 fold
B13,1.2 fold,1.9 fold,5.3 fold,36.5 fold,6.8 fold,25.4 fold
B14,1.2 fold,2 fold,5.6 fold,35.9 fold,7.1 fold,26.6 fold
B15,1 fold,1.1 fold,1 fold,1.1 fold,0.9 fold,1 fold

# Molecular target: T2, human sodium-dependent phosphate …
# Assay: cell-based or functional assay
# Remark: another data set of the same source
Binder,"EC50 (nM), in vitro cytotoxicity, H441 Spheroids","EC50 (nM), in vitro cytotoxicity, H1781 Spheroids"
B11,> 200 nM,> 200 nM
B12,> 200 nM,> 200 nM
B13,7.57 nM,1.15 nM
B14,9.85 nM,0.95 nM
B16,11.4 nM,7.94 nM
